Assay: Postprandial serum insulin aspart pharmacokinetics after meal bolus, 3-day ID vs SC infusion
Assay type: in vivo, human (T1DM patients)
Conditions: for ΔAUCIns0−1: 0–1 h; for ΔAUCIns0−1 / ΔAUCIns0–1.5 / ΔAUCIns0–2 / ΔAUCIns0–4 / T50_max_falling / T50_max_rising / Tmax / ΔCmax: mean ± SD; for ΔAUCIns0–1.5: 0–1.5 h; for ΔAUCIns0–2: 0–2 h; for ΔAUCIns0–4: 0–4 h; for Intra-subject variability of Tmax: across all study days and breakfast and lunch meals
Description: This was a single center, open-label, two-period crossover study, randomized by infusion order, in T1DM patients on continuous subcutaneous insulin infusion (CSII). The protocol was approved by an independent ethics committee (Ethikkommission der Ärztekammer Nordrhein, Düsseldorf, Germany), appropriate regulatory bodies (German Federal Institute for Drugs and Medical Devices (BfArM)), and conducted in compliance with good clinical practice (GCP), the Declaration of Helsinki, and applicable regulatory requirements.
The study was completed over a multi-week period consisting of three study visits: a screening visit (V1) and two interventional visits (V2 and V3). After establishing eligibility and enrollment, patients received treatment during two interventional visits: one SC and one ID basal/bolus infusion of insulin aspart (NovoRapid® U-100, Novo Nordisk, Copenhagen, Denmark) administered over 3 days in a randomized order.
For each dosing visit, patients arrived the evening prior to the first standardized meal to verify compliance with protocol criteria. An intravenous catheter was inserted into a peripheral vein of the arm for manual blood sampling. Infusion sets, ID (34 G × 1.5 mm length stainless steel microneedle catheter set, BD Technologies, Research Triangle Park, NC) or SC (25 G × 6 mm length soft cannula, Quick-Set, Medtronic Minimed, Northridge, CA), were connected to an insulin infusion pump (Animas® Vibe™, Animas Corporation, West Chester, PA) and primed according to the manufacturer’s instructions. Sets were placed into the patient’s abdomen (periumbilical, left or right) using a customized applicator for the ID set, or the manufacturer recommended inserter for the SC set (customized Sof-serter® and Quick-serter® respectively, both Medtronic Minimed, Northridge, CA). Due to the small adhesive surface on the microneedle catheter, a modified IV dressing (IV3000 1-Hand, Smith & Nephew, England) was used for additional securement over the catheter. A safety loop was used on all catheter lines as recommended by general insulin pump user guidance (Fig. 1c). The respective infusion sets provided all basal and bolus insulin delivery of insulin aspart for the duration of each 72-h study period. A fluid pressure transducer (BD-DTX™ Plus, Becton Dickinson, Franklin Lakes, NJ) was connected in-line between the pump reservoir and each infusion set to monitor infusion delivery pressure, with automated data capture via a commercial data logging system (LORD MicroStrain®, Williston, VT) to provide a secondary post hoc measure of delivery status. The pump/pressure monitoring system combination was contained in a waist pack for the duration of delivery due to its potentially cumbersome size.
After maintaining targeted blood glucose range during the preceding night, bolus insulin doses were administered via the respective infusion catheter prior to standardized breakfast and lunch test meals on each of the three treatment days. Each meal insulin bolus was calculated based on the patient’s insulin sensitivity and previous hours change in BG per sliding scale then delivered immediately prior to breakfast (t = 0 min) and lunch (t = 360 min) consumption. Breakfast was a high glycemic index (60 g carbohydrates) solid meal, and lunch was a mixed meal based on the individual’s calculated daily energy intake and equivalent in caloric composition by day. Breakfast and lunch meals were consumed within 15 min followed by serial blood sampling with BG monitoring for a period of 6 and 4 h, respectively. Patients were asked to remain sedentary for 2 h after meals. Identical study procedures were utilized for the remaining dosing visit days (Fig. 2).
To assess insulin absorption kinetics and glycemic response, blood samples for measurements of insulin aspart and blood glucose in serum were drawn at predefined time points throughout dosing visits. Serial samples for safety BG determination, but not PK analysis, were obtained at a minimum every 2 h. […]

[1] = ID infusion, Day 1, across meals
[2] = ID infusion, Day 2, across meals
[3] = ID infusion, Day 3, across meals
[4] = ID infusion, Days 1–3 combined, across meals, n = 141–156
[5] = SC infusion, Day 1, across meals
[6] = SC infusion, Day 2, across meals
[7] = SC infusion, Day 3, across meals
[8] = SC infusion, Days 1–3 combined, across meals, n = 141–156

insulin aspart
reduction of Tmax compared to the respective SC delivery (ID bolus vs SC): greater than 40% | decrease of T50_max_falling, ID vs SC (ID bolus vs SC, p < 0.0001): ~25% | decrease of T50_max_rising, ID vs SC (ID bolus vs SC, p < 0.0001): ~ 50% | ΔAUCIns0−1 [1]: 39.5 ± 31.4 mU*h/L | ΔAUCIns0−1 [2]: 43.7 ± 36 mU*h/L | ΔAUCIns0−1 [3]: 44.8 ± 37.4 mU*h/L | ΔAUCIns0−1 [4]: 42.5 ± 34.7 mU*h/L | ΔAUCIns0–1.5 [1]: 56.6 ± 46.4 mU*h/L | ΔAUCIns0–1.5 [2]: 61.6 ± 54.0 mU*h/L | ΔAUCIns0–1.5 [3]: 62.8 ± 55.6 mU*h/L | ΔAUCIns0–1.5 [4]: 60.2 ± 51.6 mU*h/L | ΔAUCIns0–2 [1]: 68.5 ± 59.0 mU*h/L | ΔAUCIns0–2 [2]: 74.0 ± 67.8 mU*h/L | ΔAUCIns0–2 [3]: 75.7 ± 71.2 mU*h/L | ΔAUCIns0–2 [4]: 72.5 ± 65.5 mU*h/L | ΔAUCIns0–4 [1]: 86.9 ± 85.8 mU*h/L | ΔAUCIns0–4 [2]: 92.3 ± 94.5 mU*h/L | ΔAUCIns0–4 [3]: 94.4 ± 103 mU*h/L | ΔAUCIns0–4 [4]: 91.0 ± 93.5 mU*h/L | T50_max_falling [1]: 108 ± 39.2 min | T50_max_rising [1]: 5.7 ± 2.2 min | Tmax [1]: 27.6 ± 13.9 min | ΔCmax [1]: 54.5 ± 42.1 mU/L | T50_max_falling [2]: 106 ± 32.6 min | T50_max_rising [2]: 5.8 ± 2.6 min | Tmax [2]: 29.1 ± 13.3 min | ΔCmax [2]: 58.6 ± 47.0 mU/L | T50_max_falling [3]: 107 ± 36.7 min | T50_max_rising [3]: 6.4 ± 2.3 min | Tmax [3]: 29.1 ± 12.5 min | ΔCmax [3]: 61.2 ± 51.5 mU/L | ΔCmax (ID infusion, Days 1–3 combined, across meals, baseline corrected, n = 141–156): 57.9 ± 46.5 mU/L | T50_max_falling [4]: 107 ± 36.1 min | T50_max_rising [4]: 6.0 ± 2.4 min | Tmax [4]: 28.5 ± 13.2 min | Intra-subject variability of Tmax (ID): 29.6 %CV | intra-subject Tmax variability measured by %CV (ID, across meals and days): 30% | ΔAUCIns0−1 [5]: 29.9 ± 25.3 mU*h/L | ΔAUCIns0−1 [6]: 30.6 ± 21.1 mU*h/L | ΔAUCIns0−1 [7]: 33.6 ± 25.7 mU*h/L | ΔAUCIns0−1 [8]: 31.3 ± 24 mU*h/L | ΔAUCIns0–1.5 [5]: 45.9 ± 38.9 mU*h/L | ΔAUCIns0–1.5 [6]: 48.7 ± 35.9 mU*h/L | ΔAUCIns0–1.5 [7]: 52.8 ± 42.5 mU*h/L | ΔAUCIns0–1.5 [8]: 49.0 ± 39.0 mU*h/L | ΔAUCIns0–2 [5]: 57.8 ± 50.9 mU*h/L | ΔAUCIns0–2 [6]: 62.6 ± 49.6 mU*h/L | ΔAUCIns0–2 [7]: 66.7 ± 57.0 mU*h/L | ΔAUCIns0–2 [8]: 62.2 ± 52.3 mU*h/L | ΔAUCIns0–4 [5]: 77.4 ± 76.2 mU*h/L | ΔAUCIns0–4 [6]: 85.7 ± 82.3 mU*h/L | ΔAUCIns0–4 [7]: 87.7 ± 86.9 mU*h/L | ΔAUCIns0–4 [8]: 83.4 ± 81.3 mU*h/L | T50_max_falling [5]: 135 ± 51.1 min | T50_max_rising [5]: 13.2 ± 7.9 min | Tmax [5]: 46.0 ± 28.4 min | ΔCmax [5]: 47.4 ± 37.5 mU/L | T50_max_falling [6]: 143 ± 44.1 min | T50_max_rising [6]: 12.0 ± 9.5 min | Tmax [6]: 50.1 ± 19.7 min | ΔCmax [6]: 47.2 ± 34.8 mU/L | T50_max_falling [7]: 136 ± 39.5 min | T50_max_rising [7]: 11.2 ± 5.0 min | Tmax [7]: 47.1 ± 18.3 min | ΔCmax [7]: 51.5 ± 40.8 mU/L | ΔCmax (SC infusion, Days 1–3 combined, across meals, baseline corrected, n = 141–156): 48.7 ± 37.6 mU/L | T50_max_falling [8]: 138 ± 45.1 min | T50_max_rising [8]: 12.2 ± 7.7 min | Tmax [8]: 47.7 ± 22.8 min | Intra-subject variability of Tmax (SC): 36.7 %CV | intra-subject Tmax variability measured by %CV (SC, across meals and days): 37% | Tmax shortening, ID vs SC (across days): ~ 19 min | time reduction of T50%maxfalling, ID vs SC (across days): ~31 min | time reduction of T50%maxrising, ID vs SC (across days): ~ 6 min | less intra-subject variability (%CV), ID compared to SC (across meals and days): ~ 7%
